Series [1] deals with O=C(O)[C@H]1O[C@H](OP(=O)(O)OP(=O)(O)OC[C@H]2O[C@@H](n3ccc(=O)[nH]c3=O)[C@H](O)[C@@H]2O)[C@H](O)[C@@H](O)[C@@H]1O. Nature of the series: purified protein. As to conditions: NAD+ as co-substrate, pH 8.5, 25°C, without WlbC.
For series [2] the test system is unchanged. Nature of the series: purified protein. The format is biochemical, Chromobacterium violaceum. The note with it: NAD+ as co-substrate, pH 8.5 (50 mM HEPPS), 25°C, without WlbC.
For series [3], the target named is WlbA from Chromobacterium violaceum (Chromobacterium violaceum). In words: AUC.
Series [4] has the same target. Nature of the series: crystal structure.

Data on three substances can be found in publication PMC3050068.

Regarding “B. pertussis WlbA (Bordetella pertussis Tohama I)”, in series [1], the Km worked out at 2050 ± 210 µM, the kcat was 0.0021 ± 0.0001 s⁻¹ and the kcat/Km is 1 M⁻¹ s⁻¹.
For the substance “C. violaceum WlbA (Chromobacterium violaceum ATCC 12472)”, in series [2], the Km came to 200 ± 20 µM, the kcat turned out to be 0.00015 ± 0.00001 s⁻¹ and the specificity constant (kcat/Km) came to 0.75 M⁻¹ s⁻¹.
As to “WlbA from Chromobacterium violaceum (enzyme)”, the stoichiometry N in series [3] and in series [4] was 8 throughout.
